Among the data in publication PMC13228514 (2026) are Kd and koff values, retold here.

Among the targets are 8D1; 39G7; anti-LHFPL5.
Common to all, as to assay: BLI; intact antibody
For orientation: In BLI a coated tip is dipped into the sample, and binding shifts an interference pattern.

39G7, sequence (Q99PJ1 27-1462): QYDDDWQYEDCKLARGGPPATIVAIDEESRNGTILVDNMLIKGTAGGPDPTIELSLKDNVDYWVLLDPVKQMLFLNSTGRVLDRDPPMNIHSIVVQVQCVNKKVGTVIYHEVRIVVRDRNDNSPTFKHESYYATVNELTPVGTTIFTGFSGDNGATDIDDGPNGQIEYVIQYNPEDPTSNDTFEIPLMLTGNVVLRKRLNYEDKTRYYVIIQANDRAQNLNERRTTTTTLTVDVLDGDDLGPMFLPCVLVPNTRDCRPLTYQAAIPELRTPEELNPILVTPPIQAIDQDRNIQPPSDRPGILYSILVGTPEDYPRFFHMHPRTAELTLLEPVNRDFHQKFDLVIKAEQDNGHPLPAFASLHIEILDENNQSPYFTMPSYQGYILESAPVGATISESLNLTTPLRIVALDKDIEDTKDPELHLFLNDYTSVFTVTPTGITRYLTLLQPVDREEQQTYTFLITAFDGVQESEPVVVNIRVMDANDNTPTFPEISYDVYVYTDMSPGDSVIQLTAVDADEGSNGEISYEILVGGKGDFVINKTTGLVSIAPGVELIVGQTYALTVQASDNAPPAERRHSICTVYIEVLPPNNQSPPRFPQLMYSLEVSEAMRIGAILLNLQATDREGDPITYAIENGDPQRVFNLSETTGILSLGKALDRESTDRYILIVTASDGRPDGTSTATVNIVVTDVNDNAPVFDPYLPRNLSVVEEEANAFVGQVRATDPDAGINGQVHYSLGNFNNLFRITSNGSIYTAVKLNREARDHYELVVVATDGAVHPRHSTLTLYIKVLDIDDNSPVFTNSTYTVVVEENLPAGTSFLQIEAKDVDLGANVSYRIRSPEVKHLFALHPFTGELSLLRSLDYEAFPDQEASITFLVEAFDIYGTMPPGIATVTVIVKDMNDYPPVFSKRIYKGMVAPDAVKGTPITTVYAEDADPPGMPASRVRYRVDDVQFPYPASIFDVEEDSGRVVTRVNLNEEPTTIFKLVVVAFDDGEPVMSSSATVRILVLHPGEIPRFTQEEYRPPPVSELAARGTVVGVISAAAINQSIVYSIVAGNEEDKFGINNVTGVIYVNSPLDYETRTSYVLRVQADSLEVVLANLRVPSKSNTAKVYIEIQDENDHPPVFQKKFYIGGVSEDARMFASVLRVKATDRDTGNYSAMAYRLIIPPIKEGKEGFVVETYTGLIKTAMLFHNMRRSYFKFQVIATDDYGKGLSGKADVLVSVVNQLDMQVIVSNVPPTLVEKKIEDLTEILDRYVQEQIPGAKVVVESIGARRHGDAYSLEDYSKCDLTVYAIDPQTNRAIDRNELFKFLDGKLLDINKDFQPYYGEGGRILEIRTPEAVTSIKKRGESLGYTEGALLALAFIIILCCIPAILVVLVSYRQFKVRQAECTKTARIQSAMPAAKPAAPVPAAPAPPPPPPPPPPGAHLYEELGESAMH
8D1, sequence (Q99PJ1 27-1462): as above

B1: recombinant protocadherin-15 (PCDH15), residues 1-1462 (EC1-EC11 and part of the cytoplasmic region) (domain or fragment)
chain: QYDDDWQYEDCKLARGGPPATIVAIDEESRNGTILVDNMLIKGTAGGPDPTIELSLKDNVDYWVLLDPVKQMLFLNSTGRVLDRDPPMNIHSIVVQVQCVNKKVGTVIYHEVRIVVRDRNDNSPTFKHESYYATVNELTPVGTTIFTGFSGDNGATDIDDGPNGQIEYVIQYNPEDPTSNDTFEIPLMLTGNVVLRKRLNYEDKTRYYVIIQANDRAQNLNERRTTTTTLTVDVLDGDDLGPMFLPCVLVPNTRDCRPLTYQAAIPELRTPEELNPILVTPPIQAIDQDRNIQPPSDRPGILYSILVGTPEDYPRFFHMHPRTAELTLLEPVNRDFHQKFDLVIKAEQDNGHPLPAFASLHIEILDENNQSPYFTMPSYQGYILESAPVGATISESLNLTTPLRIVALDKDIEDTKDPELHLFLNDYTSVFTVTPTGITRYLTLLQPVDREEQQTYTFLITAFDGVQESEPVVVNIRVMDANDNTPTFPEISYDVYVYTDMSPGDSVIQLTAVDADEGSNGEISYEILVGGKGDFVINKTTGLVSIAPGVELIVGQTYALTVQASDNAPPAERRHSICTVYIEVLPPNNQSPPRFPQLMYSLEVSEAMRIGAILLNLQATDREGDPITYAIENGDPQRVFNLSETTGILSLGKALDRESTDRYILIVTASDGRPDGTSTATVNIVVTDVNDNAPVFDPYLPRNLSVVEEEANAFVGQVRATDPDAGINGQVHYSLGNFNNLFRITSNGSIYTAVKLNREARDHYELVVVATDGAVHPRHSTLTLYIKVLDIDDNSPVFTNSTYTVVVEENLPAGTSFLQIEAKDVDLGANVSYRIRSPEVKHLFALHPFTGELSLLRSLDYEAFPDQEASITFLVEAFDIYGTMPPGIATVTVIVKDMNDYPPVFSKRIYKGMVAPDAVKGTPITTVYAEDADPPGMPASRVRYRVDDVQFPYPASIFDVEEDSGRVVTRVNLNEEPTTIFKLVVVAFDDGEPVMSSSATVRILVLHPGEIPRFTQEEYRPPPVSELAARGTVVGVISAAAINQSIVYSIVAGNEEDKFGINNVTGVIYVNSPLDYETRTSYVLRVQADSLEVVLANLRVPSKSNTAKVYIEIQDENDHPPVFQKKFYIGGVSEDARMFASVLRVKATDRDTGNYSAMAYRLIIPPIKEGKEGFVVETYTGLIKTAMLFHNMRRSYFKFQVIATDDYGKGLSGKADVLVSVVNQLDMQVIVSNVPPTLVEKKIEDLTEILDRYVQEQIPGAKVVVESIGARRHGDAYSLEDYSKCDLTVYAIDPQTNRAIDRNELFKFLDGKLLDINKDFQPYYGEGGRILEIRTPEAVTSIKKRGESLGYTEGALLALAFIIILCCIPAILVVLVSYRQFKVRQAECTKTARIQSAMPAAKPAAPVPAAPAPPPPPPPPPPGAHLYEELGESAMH
As a reminder, the Kd is the concentration at which binding is half-saturated. Read a low Kd as a tighter complex. As a reminder, the koff is the first-order rate constant of dissociation. Read a high koff as fast dissociation. With B1, in the experiment with 8D1, the Kd was found to be 0.05 nM and the koff was 3e-05 s⁻¹. In the experiment with 39G7, this molecule showed a Kd of 0.2 nM and a koff of 2e-05 s⁻¹.

B2: recombinant lipoma HMGIC fusion partner-like protein 5 (LHFPL5), residues 2-219 (natural protein)
chain: VKLLPAQEAAKIYHTNYVRNSRAVGVMWGTLTICFSVLVMALFIQPYWIGDSVSTPQAGYFGLFSYCVGNVLSSELICKGGPLDFSSIPSRAFKTAMFFVALAMFLIIGSIICFSLFFVCNTATVYKICAWMQLAAATGLMIGCLVYPDGWDSSEVRRMCGEQTGKYTLGHCTIRWAFMLAILSIGDALILSFLAFVLGYRQDKLLPDDYKADGNEEV
In the experiment with anti-LHFPL5, B2 displayed a Kd of 1 nM and a koff of 5e-05 s⁻¹.
